Assay results taken from IntAct's records for PubMed 10660620.

Molecular target: pilra_human PILRA (UniProt Q9UKJ1)
Sequence (Q9UKJ1 whole entry): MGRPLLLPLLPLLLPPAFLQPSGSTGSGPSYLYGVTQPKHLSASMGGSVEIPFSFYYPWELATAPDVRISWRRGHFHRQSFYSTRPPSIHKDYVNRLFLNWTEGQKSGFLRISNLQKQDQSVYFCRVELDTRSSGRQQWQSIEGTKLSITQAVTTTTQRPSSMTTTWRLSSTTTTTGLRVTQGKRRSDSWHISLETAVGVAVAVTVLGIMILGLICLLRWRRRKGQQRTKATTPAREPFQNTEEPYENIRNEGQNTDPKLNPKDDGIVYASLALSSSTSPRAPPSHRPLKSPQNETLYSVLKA

Tyrosine-protein phosphatase non-receptor type 6 (Homo sapiens), P29350 D419A, sequence (P29350 whole entry D419A): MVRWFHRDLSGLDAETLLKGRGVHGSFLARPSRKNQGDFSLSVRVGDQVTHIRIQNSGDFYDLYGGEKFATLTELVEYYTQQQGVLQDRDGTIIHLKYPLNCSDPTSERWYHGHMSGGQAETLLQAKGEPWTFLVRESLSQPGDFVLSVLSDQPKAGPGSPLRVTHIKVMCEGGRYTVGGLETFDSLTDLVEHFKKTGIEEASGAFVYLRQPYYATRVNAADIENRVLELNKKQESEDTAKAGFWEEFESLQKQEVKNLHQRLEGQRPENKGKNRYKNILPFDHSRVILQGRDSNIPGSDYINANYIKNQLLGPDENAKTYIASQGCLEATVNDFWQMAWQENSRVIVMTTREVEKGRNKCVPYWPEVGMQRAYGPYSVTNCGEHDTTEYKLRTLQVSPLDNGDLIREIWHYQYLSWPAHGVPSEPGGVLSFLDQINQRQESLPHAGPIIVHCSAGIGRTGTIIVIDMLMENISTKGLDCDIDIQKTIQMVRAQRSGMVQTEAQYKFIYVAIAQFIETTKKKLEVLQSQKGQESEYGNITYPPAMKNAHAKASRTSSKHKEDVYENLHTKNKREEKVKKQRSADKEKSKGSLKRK

effect of a mutation on the interaction: increasing interaction
Substance: Tyrosine-protein phosphatase non-receptor type 6 (Homo sapiens), P29350 D419A
